# Laboratory results as given in PMC6453562.
# Columns and labels:
# Experiment in all cases: native gel or EMSA
# [1] = biological target: BG505 SOSIP.664-His trimer (HIV-1 (BG505)) (UniProt Q2N0S6)
# [2] = biological target: B41 SOSIP.v4.1-His trimer (HIV-1 (B41))
# [3] = biological target: BG505 SOSIP.664 trimer (HIV-1 (BG505)) (UniProt Q2N0S6)
substance,measurement,setting,value
BG505 SOSIP.664-His trimer (from UniProt Q2N0S6 1-860; Q2N0S6 1-860) (complex),stoichiometry N,[1],3
B41 SOSIP.v4.1-His trimer (complex),stoichiometry N,[2],3
BG505 SOSIP.664 trimer (from UniProt Q2N0S6 1-860; Q2N0S6 1-860) (complex),stoichiometry N,[3],3
